Experimental data reported in US20240400693A1.

Experiments:
Assay in all cases: cell-based or functional assay
[1] = target: HLA-DQ2.5 on IHW09023 cells loaded with omega1/2 gliadin peptide (human; wheat)
[2] = target: HLA-DQ2.5 on IHW09023 cells loaded with BC hordein peptide (human; barley)
[3] = target: HLA-DQ2.5 on IHW09023 cells loaded with 33mer gliadin peptide (human; wheat)
[4] = target: HLA-DQ2.5 on IHW09023 cells loaded with gamma 2 gliadin peptide (human; wheat)
[5] = target: HLA-DQ2.5 on IHW09023 cells loaded with gamma 3 gliadin peptide (human; wheat)
[6] = target: HLA-DQ2.5 on IHW09023 cells loaded with gamma 1 gliadin peptide (human; wheat)
[7] = target: HLA-DQ2.5 on IHW09023 cells loaded with gamma 4d gliadin peptide (human; wheat)
[8] = target: HLA-DQ2.5 on IHW09023 cells loaded with gamma 4a gliadin peptide (human; wheat)

B1: DQN034425 (antibody, V domains shown)
VH: QVQLVESGGGVVQPGRSLRLSCAASGFTFSSSYWMCWVRQAPGQGLEWMGCVYGGSDTTYYASWTKGRFTISRDNSKNTLYLQMNSLRAEDTAVYYCARDPLNYYYYGELNLWGQGTLVTVSS
VL: DIQMTQSPSSLSASVGDRVTITCQATENIYSGLAWYQQKPGKAPKLLIYYVSTLASGIPARFSGSGSGTDFTLTISSLEPEDFAVYYCQTYHDISNVTFGQGTKVEIK
IC50 (ng/mL), ω1 gliadin TCR, 25 µM ω1/2 gliadin [1]: 3.12 ng/mL | IC50 (ng/mL), ω2 gliadin TCR, 250 nM ω1/2 gliadin [1]: > 500 ng/mL | IC50 (ng/mL), BC hordein TCR, 250 nM BC hordein [2]: > 20000 ng/mL | IC50 (ng/mL), α1a gliadin TCR, 250 nM 33mer gliadin [3]: 10.6 ng/mL | IC50 (ng/mL), α1b gliadin TCR, 250 nM 33mer gliadin [3]: 46.4 ng/mL | IC50 (ng/mL), α2 gliadin TCR, 250 nM 33mer gliadin [3]: 1.75 ng/mL | IC50 (ng/mL), γ2 gliadin TCR, 250 nM γ2 gliadin [4]: > 20000 ng/mL | IC50 (ng/mL), γ3 gliadin TCR, 100 µM γ3 gliadin [5]: 3100 ng/mL | IC50 (ng/mL), γ1 gliadin TCR, 250 nM γ1 gliadin [6]: > 20000 ng/mL | IC50 (ng/mL), γ4d gliadin TCR, 100 µM γ4d gliadin [7]: > 20000 ng/mL | IC50 (ng/mL), γ4a gliadin TCR, 25 µM γ4a gliadin [8]: > 20000 ng/mL
